Measurements published in the supplement of paper PMC11136658.

Test system: peptide library, one residue held at a place counted from the Y acceptor
Experiment: relative phosphorylation of the sub-library (ratio to the mean residue at this position); higher = residue favoured
Summary of the method: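 Biotinylated Tyr-centred peptide library mixtures, each fixing one residue at one position from −5 to +5, were incubated with purified recombinant kinases in 384-well plates for 90 min with 50 μM ATP plus γ-32P-ATP. Streptavidin membranes captured the peptides, which were rinsed and quantified by phosphorimaging and ImageQuant. At each position, intensities were divided by the sum of the 18 randomized residues (16 for the Ser/Thr-free library) and multiplied by that number. Each value is phosphorylation relative to the mean randomized residue.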

FRK, construct: aa208-end, human, sequence (P42685 208-505, looked up): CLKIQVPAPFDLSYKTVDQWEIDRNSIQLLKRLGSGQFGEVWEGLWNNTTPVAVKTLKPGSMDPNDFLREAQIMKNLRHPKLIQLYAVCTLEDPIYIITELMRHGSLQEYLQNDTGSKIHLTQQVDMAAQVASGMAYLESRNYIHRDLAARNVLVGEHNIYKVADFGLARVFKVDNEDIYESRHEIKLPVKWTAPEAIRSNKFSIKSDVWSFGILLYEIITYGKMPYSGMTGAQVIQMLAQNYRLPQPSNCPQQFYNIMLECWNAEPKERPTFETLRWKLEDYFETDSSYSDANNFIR
FYN, construct: Full length, human, sequence (P06241 whole entry, looked up): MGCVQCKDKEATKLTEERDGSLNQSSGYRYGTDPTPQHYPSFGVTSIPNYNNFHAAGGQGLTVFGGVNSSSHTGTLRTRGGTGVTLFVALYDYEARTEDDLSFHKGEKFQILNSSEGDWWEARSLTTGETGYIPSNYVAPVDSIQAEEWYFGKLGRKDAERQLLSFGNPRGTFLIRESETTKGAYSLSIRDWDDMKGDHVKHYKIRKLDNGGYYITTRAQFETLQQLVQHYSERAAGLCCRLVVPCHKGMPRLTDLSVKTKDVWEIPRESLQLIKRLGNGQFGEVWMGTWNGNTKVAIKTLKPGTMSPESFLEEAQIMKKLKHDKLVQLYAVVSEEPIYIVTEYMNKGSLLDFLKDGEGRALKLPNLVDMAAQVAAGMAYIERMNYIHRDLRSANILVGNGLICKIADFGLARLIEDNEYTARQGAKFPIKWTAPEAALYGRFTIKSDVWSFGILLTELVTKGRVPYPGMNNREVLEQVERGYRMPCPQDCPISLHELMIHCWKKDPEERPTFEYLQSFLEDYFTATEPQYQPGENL
FLT4, construct: aa800-end, human, sequence (P35916 800-1363, looked up): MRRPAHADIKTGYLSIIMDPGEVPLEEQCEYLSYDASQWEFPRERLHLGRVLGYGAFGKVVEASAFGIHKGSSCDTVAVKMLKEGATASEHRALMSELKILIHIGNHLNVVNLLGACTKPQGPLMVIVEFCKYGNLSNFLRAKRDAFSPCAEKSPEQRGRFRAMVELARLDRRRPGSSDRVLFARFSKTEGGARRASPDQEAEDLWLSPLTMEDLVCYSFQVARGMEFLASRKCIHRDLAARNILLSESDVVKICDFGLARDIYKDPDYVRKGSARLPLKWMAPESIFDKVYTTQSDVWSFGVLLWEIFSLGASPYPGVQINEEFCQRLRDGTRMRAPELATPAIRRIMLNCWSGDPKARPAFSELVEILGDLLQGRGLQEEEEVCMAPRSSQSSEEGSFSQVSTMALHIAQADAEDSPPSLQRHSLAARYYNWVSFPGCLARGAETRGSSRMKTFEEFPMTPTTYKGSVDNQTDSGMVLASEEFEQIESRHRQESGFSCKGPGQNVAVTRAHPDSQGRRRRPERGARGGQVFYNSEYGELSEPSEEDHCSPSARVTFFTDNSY

FLT4, construct: aa800-end, human (from UniProt P35916)
relative phosphorylation
Conditions	at +1	at +2	at +3	at +4	at +5	at -1	at -2	at -3	at -4	at -5
A fixed	0.654	0.524	0.48	0.749	0.758	0.638	0.879	0.799	0.976	0.878
D fixed	0.367	0.647	0.424	0.913	1.12	2.84	1.25	1.3	1.05	1.04
E fixed	0.448	0.846	0.366	0.895	0.95	1.93	1.3	1.34	1.16	0.956
F fixed	2.19	1.57	3.08	1.07	1.31	1.09	0.748	1.04	1.14	1.12
G fixed	0.351	0.332	0.713	1.01	0.98	0.492	0.949	0.888	0.967	0.956
H fixed	1.08	1.05	0.595	1.33	1.12	1.24	1.16	1.16	1.08	1.27
I fixed	1.69	1.02	1.82	0.723	0.927	1.05	0.825	0.743	0.798	0.898
K fixed	0.643	0.864	0.396	1.16	1.01	0.439	0.921	0.964	0.992	1.08
L fixed	1.06	1.36	2.1	0.856	1.06	0.746	0.887	0.845	0.928	0.853
M fixed	1.02	1.07	1.98	0.98	0.991	0.655	0.962	0.853	0.837	0.953
N fixed	0.534	0.899	0.389	0.868	1.1	1.6	1.2	1.24	0.896	1.08
P fixed	0.571	0.471	0.588	1.17	1.04	0.583	0.945	0.8	0.915	0.822
Q fixed	1.25	0.896	0.59	1.09	0.967	1.15	1.16	1.11	1.08	1.07
R fixed	0.734	1.3	0.554	1.37	1.01	0.507	1.17	1.09	1.14	1.24
S fixed	0.599	0.684	0.506	0.92	0.829	0.657	1.08	1.09	0.843	0.921
T fixed	0.9	0.895	0.72	0.848	0.771	0.792	0.899	1.01	0.74	0.848
V fixed	2.12	0.975	1.4	0.751	0.774	0.892	0.766	0.712	0.844	0.777
W fixed	1.78	2.6	1.3	1.3	1.28	0.706	0.895	1.03	1.61	1.23
pThr fixed	0.737	1.37	0.521	0.8	1.08	1.47	0.969	1.13	1.03	0.981
pTyr fixed	2.51	2.96	0.651	0.9	0.834	3.16	1.24	1.38	1.29	1.06

FRK, construct: aa208-end, human (from UniProt P42685)
relative phosphorylation
Conditions	at +1	at +2	at +3	at +4	at +5	at -1	at -2	at -3	at -4	at -5
A fixed	1.2	0.883	0.702	0.821	1.01	0.594	1.14	0.808	1.11	1.05
D fixed	0.563	0.473	0.24	0.573	0.93	0.836	1.19	1.92	1.14	1.12
E fixed	2.3	0.65	0.193	0.549	0.861	1.92	1.73	2.11	1.84	0.931
F fixed	1.03	1.6	1.95	1.38	1.21	0.878	0.642	0.892	1.03	1.07
G fixed	0.519	0.445	0.589	1.01	0.861	0.34	1.13	1.09	1.27	1.21
H fixed	0.91	0.758	0.741	1.32	1.15	0.777	1.02	0.902	0.913	0.993
I fixed	1.54	1.29	2.29	0.88	0.807	3.11	1.1	0.761	0.923	1.07
K fixed	0.343	0.897	0.475	1.23	1.06	0.27	0.568	0.631	0.719	0.858
L fixed	1.25	1.36	1.56	0.937	1.01	2.46	0.895	0.852	0.993	1.09
M fixed	1.76	0.966	1.3	1.22	0.914	1.13	0.67	0.895	0.929	1.12
N fixed	0.382	1.01	0.568	0.737	0.702	0.573	1.01	1.06	0.888	0.973
P fixed	0.116	0.601	0.87	0.971	1.15	0.452	1.3	1.04	1.1	1.11
Q fixed	1.23	0.748	0.469	0.965	0.974	0.664	1.01	0.838	1.06	0.966
R fixed	0.492	1.11	1.52	1.35	1.2	0.311	0.656	0.674	0.769	0.863
S fixed	0.919	1.09	0.642	0.863	1.01	0.433	1.03	0.938	0.792	0.836
T fixed	0.825	1.17	0.767	0.771	0.853	0.9	0.9	0.882	0.634	0.8
V fixed	1.18	1.21	1.71	0.865	0.934	1.9	1.3	0.778	0.793	0.825
W fixed	1.44	1.73	1.43	1.55	1.36	0.453	0.716	0.929	1.09	1.11
pThr fixed	1.09	1.58	0.217	0.462	0.638	2.06	1.3	1.28	0.91	0.853
pTyr fixed	4.6	2.61	0.782	0.659	0.692	1.06	1.28	1.7	1.57	0.867

FYN, construct: Full length, human (from UniProt P06241)
relative phosphorylation
Conditions	at +1	at +2	at +3	at +4	at +5	at -1	at -2	at -3	at -4	at -5
A fixed	1.68	1.07	0.544	0.857	0.903	0.622	1.04	0.787	1.08	1.02
D fixed	0.925	0.762	0.546	1.02	0.987	0.867	1.77	2.4	1.64	1.5
E fixed	1.79	1.76	0.601	1	0.951	1.08	1.95	2.8	1.89	1.35
F fixed	0.656	1.08	3.35	1.23	1.16	0.885	0.483	0.803	0.997	0.993
G fixed	3.49	0.728	0.941	1.03	1.03	0.467	1.38	0.91	1.17	1.14
H fixed	0.53	0.515	0.732	0.901	1.01	0.419	0.77	0.814	0.726	0.924
I fixed	0.861	1.06	1.72	0.735	0.718	3.38	0.717	0.641	0.796	0.833
K fixed	0.231	0.61	0.397	1.12	1.04	0.221	0.515	0.469	0.622	0.901
L fixed	0.635	1.02	1.39	0.912	0.92	1.76	0.716	0.672	0.906	0.933
M fixed	0.992	1.05	0.894	1.04	0.858	0.806	0.667	0.729	0.784	0.904
N fixed	0.504	0.806	0.455	0.81	1.03	0.33	1.34	1.26	0.903	0.97
P fixed	0.291	0.734	0.571	0.945	1.48	1.2	1.43	0.969	1.32	1.17
Q fixed	0.906	0.951	0.539	1.14	0.81	0.521	1.2	0.965	1.08	0.978
R fixed	0.311	0.79	0.728	1.14	1.22	0.227	0.612	0.56	0.744	0.886
S fixed	1.01	1.32	0.628	0.977	1.03	0.44	1.23	0.945	0.813	0.865
T fixed	0.895	1.39	0.92	0.861	0.996	1.33	0.774	0.79	0.733	0.779
V fixed	0.935	1.28	1.4	0.882	0.722	2.95	0.793	0.649	0.821	0.84
W fixed	1.36	1.08	1.64	1.38	1.14	0.497	0.606	0.838	0.973	1
pThr fixed	1.64	2.15	0.627	0.773	0.686	4.17	1.92	1.58	1.42	1.31
pTyr fixed	3.45	1.96	0.89	1.23	1.11	1.34	1.37	1.71	1.52	1.32
